{
  "source": "patent US20050060764A1",
  "about": "“Mouse model for bone metabolism” (priority 2003, published 2005)",
  "molecules": {"B1": {"name": "parathyroid hormone (peptide, UniProt P01270 32-115, looked up)", "Parathyroid hormone": "SVSEIQLMHNLGKHLNSMERVEWLRKKLQDVHNFVALGAPLAPRDAGSQRPRKKEDNVLVESHEKSLGEADKADVNVLTKAKSQ", "notes": "parathyroid hormone infused to induce bone resorption in the mouse model"}},
  "key": {"RANK mRNA": {"tested_on": "RANK mRNA", "assay": "RANK mRNA expression in mouse proximal tibia after antisense oligonucleotide treatment and PTH infusion: time course (Table 13)", "type": "in vivo", "settings": "for RANK mRNA % inhibition (normalized to PTH) Proximal Tibia: then 24 h PTH", "method": "In accordance with the present invention, ISIS 181071 was administered to mice for different time periods to evaluate its ability to inhibit RANK expression and PTH-induced serum calcium concentration increase as a function of oligonucleotide treatment time.\nFemale Swiss-Webster mice (5-8 wks old) were fed a low-calcium diet and received daily subcutaneous injections of 30 mg/kg of ISIS 181071 (SEQ ID NO: 356) for 2, 3, 5, 7, 10, 14, or 21 days. At the end of the oligonucleotide treatment period, mice were infused with PTH by subcutaneously implanted mini-pumps at a dose of 1 ug/100 g/6 hr. A group of control mice were dosed with either saline, PTH alone (1 ug/100 g/6 hr) or calcitonin (400 ug) plus PTH (1 ug/100 g/6 hr). Following 24 hours of PTH infusion (total PTH delivery of 4ug/100 g), the mice were sacrificed and measurements were made of serum calcium with the Sigma Diagnostics Calcium Kit (Sigma-Aldrich) and RANK mRNA expression in the proximal tibia (as described in other examples herein). Percent RANK mRNA inhibition is normalized to PTH alone treatment."}, "[1]": {"assay": "Short-term bone resorption model: serum calcium after PTH infusion (Table 6)", "type": "in vivo, mouse", "settings": "mice infused with PTH 1 ug/100 g/6 hr", "description": "Parathyroidectomized rats are a well-established, short-term model of bone resorption and are useful in the investigation of antiresorptive agents. However, it is difficult to surgically remove only the parathyroid gland of rodents, and the inadvertent removal of the adjacent thyroid gland often has effects on thyroid hormone levels that introduce into the experiment an undesirable level of variability. Continuous infusion of parathyroid hormone (PTH) into intact, young (6-9 weeks old) mice reproduces the short-term bone resorption activity seen in parathyroidectomized rodents and is thus a useful, non-invasive model for the study of antiresorptive agents. The PTH infusion activates bone osteoclasts and causes them to degrade bone matrix, with a resulting rise in serum calcium. In accordance with the present invention, a short-term mouse model of bone resorption was developed and used to evaluate the effects of PTH infusion on serum calcium concentration and RANKL mRNA levels.\nFemale, Swiss-Webster mice (5-8 weeks old) were placed on a low calcium diet and implanted with mini-pumps delivering PTH continuously. The pumps were calibrated to deliver 1 ug PTH per 100 g bodyweight per 6 hour time period (1 ug/100 g/6 hr). With this procedure, over a 24 hour period, a total of 4 ug PTH per 100 g body weight is delivered (4 ug/100 g/24 hr). PTH infusion was conducted in these mice for 6, 12, 18 and 24 hours. At the end of each time period, the mice were sacrificed and measurements were made of the serum calcium, using the Sigma Diagnostics Calcium Kit (Sigma-Aldrich), and RANKL mRNA expression in the proximal tibia, as described in other examples herein. The data are expressed as percent increase relative to no PTH treatment."}, "RANKL mRNA": {"tested_on": "RANKL mRNA", "assay": "RANKL mRNA expression in primary mouse osteoblast cells after PTH treatment: time course (Table 7)", "type": "cell-based", "settings": "10 nM PTH; for RANKL mRNA % control: primary osteoblast cells", "method": "Primary mouse osteoblasts were prepared from calvaria of neonatal mice purchased from Charles River Laboratories. […] Cells were not passaged. Cells were seeded onto 6-well plates (Falcon-Primaria #353846) at a density of 50,000 cells/well for use in antisense oligonucleotide transfection.\nIn a further embodiment of this invention, the effect of PTH treatment on the expression of RANKL was determined in primary osteoblast cells isolated from mice skull caps. Primary osteoblastic cells were treated for 24 hours with either saline or the transfection reagent FuGENE 6 (Roche Applied Science, Indianapolis, Ind.). […] The RNA was then harvested and the expression levels of RANKL mRNA were measured by the methods described herein. The data are expressed as percent increase over untreated control cells."}, "[2]": {"assay": "Serum calcium concentration after PTH infusion in mice: specificity and dose response of RANK antisense oligonucleotide (Table 15)", "type": "in vivo, mouse", "settings": "control mice, no oligonucleotide; PTH 1 ug/100 g/6 hr 24 h, calcitonin 400 ng", "method": "In accordance with the present invention, the specificity of RANK inhibition by a RANK antisense oligonucleotide was compared to that of an 8-base pair mismatch oligonucleotide.\nISIS 181080 ([…], SEQ ID NO: 357) is an antisense oligonucleotide targeted to mouse RANK. ISIS 208565 ([…], SEQ ID NO: 358) is an 8-base pair mismatch oligonucleotide. […] All cytidine residues are 5-methylcytidines.\nFemale Swiss-Webster mice (5-8 wks old) fed a low-calcium diet were treated for two weeks with either ISIS 181080 or ISIS 208565. The dose of oligonucleotide was either 40 mg/kg, 30 mg/kg, 20 mg/kg, or 10 mg/kg. After the 2-week treatment with oligonucleotides, the mice were infused with PTH by subcutaneously implanted mini-pumps at a dose of 4 ug/100 g over 24 hours. A group of control mice were dosed with either saline, PTH alone (1 ug/100 g/6 hr) or calcitonin (400 ng) plus PTH (1 ug/100 g/6 hr). After 24 hours of PTH infusion (total PTH delivery of 4 ug/100 g), the mice were sacrificed and measurements were made of serum calcium with the Sigma Diagnostics Calcium Kit (Sigma-Aldrich) and RANK mRNA expression in proximal tibia (as described in other examples herein). The results shown in Table 15 are the average from four mice per group. Percent inhibition of RANK mRNA is normalized to PTH treatment alone. […] The data also illustrate that these effects are occurring due to an antisense mechanism."}},
  "note": "Strand notation (5' to 3'): a small letter for the sugar, then the base; units joined by * are phosphorothioate-linked, units joined directly phosphodiester-linked; [ ] holds rarer units or linkages, { } end groups; capitals alone tell only the bases. e = 2'-O-(2-methoxyethyl) (MOE); [5mC] = 5-methylcytosine; d = 2'-deoxy (DNA)",
  "data": [
    {"molecule": "TCCTCGAGAGGTCTCCTTGC (antisense eT*e[5mC]*e[5mC]*eT*e[5mC]*dG*dA*dG*dA*dG*dG*dT*d[5mC]*dT*d[5mC]*e[5mC]*eT*eT*eG*e[5mC]) [ISIS 181071, 2′-MOE gapmer antisense oligonucleotide targeted to mouse RANK]", "values": [
      {"measurement": "RANK mRNA % inhibition (normalized to PTH) Proximal Tibia", "setting": "RANK mRNA; 30 mg/kg daily sc for 2 days", "result": 34, "unit": "%"},
      {"measurement": "RANK mRNA % inhibition (normalized to PTH) Proximal Tibia", "setting": "RANK mRNA; 30 mg/kg daily sc for 3 days", "result": 14, "unit": "%"},
      {"measurement": "RANK mRNA % inhibition (normalized to PTH) Proximal Tibia", "setting": "RANK mRNA; 30 mg/kg daily sc for 5 days", "result": 32, "unit": "%"},
      {"measurement": "RANK mRNA % inhibition (normalized to PTH) Proximal Tibia", "setting": "RANK mRNA; 30 mg/kg daily sc for 7 days", "result": 61, "unit": "%"},
      {"measurement": "RANK mRNA % inhibition (normalized to PTH) Proximal Tibia", "setting": "RANK mRNA; 30 mg/kg daily sc for 10 days", "result": 37, "unit": "%"},
      {"measurement": "RANK mRNA % inhibition (normalized to PTH) Proximal Tibia", "setting": "RANK mRNA; 30 mg/kg daily sc for 14 days", "result": 53, "unit": "%"},
      {"measurement": "RANK mRNA % inhibition (normalized to PTH) Proximal Tibia", "setting": "RANK mRNA; 30 mg/kg daily sc for 21 days", "result": 52, "unit": "%"},
      {"measurement": "RANK mRNA expression in the proximal tibia", "setting": "RANK mRNA; mice, 30 mg/kg daily s.c. for 2, 3, 5, 7, 10, 14, or 21 days, 24 hours PTH infusion", "result": "inhibition of RANK mRNA in the proximal tibia"}
    ]},
    {"molecule": "B1", "values": [
      {"measurement": "Serum Calcium Concentration % control", "setting": "[1]; 6 hours", "result": 109, "unit": "% control"},
      {"measurement": "Serum Calcium Concentration % control", "setting": "[1]; 12 hours", "result": 115, "unit": "% control"},
      {"measurement": "Serum Calcium Concentration % control", "setting": "[1]; 18 hours", "result": 125, "unit": "% control"},
      {"measurement": "Serum Calcium Concentration % control", "setting": "[1]; 24 hours (4 ug/100 g)", "result": 230, "unit": "% control"},
      {"measurement": "RANKL mRNA % control", "setting": "RANKL mRNA; 0.5 hours, FuGENE 6 treatment", "result": 185, "unit": "% control"},
      {"measurement": "RANKL mRNA % control", "setting": "RANKL mRNA; 0.5 hours, saline treatment", "result": 168, "unit": "% control"},
      {"measurement": "RANKL mRNA % control", "setting": "RANKL mRNA; 1 hour, FuGENE 6 treatment", "result": 750, "unit": "% control"},
      {"measurement": "RANKL mRNA % control", "setting": "RANKL mRNA; 1 hour, saline treatment", "result": 700, "unit": "% control"},
      {"measurement": "RANKL mRNA % control", "setting": "RANKL mRNA; 2 hours, FuGENE 6 treatment", "result": 1275, "unit": "% control"},
      {"measurement": "RANKL mRNA % control", "setting": "RANKL mRNA; 2 hours, saline treatment", "result": 908, "unit": "% control"},
      {"measurement": "RANKL mRNA % control", "setting": "RANKL mRNA; 4 hours, FuGENE 6 treatment", "result": 467, "unit": "% control"},
      {"measurement": "RANKL mRNA % control", "setting": "RANKL mRNA; 4 hours, saline treatment", "result": 383, "unit": "% control"},
      {"measurement": "RANKL mRNA % control", "setting": "RANKL mRNA; 6 hours, FuGENE 6 treatment", "result": 340, "unit": "% control"},
      {"measurement": "RANKL mRNA % control", "setting": "RANKL mRNA; 6 hours, saline treatment", "result": 326, "unit": "% control"},
      {"measurement": "RANKL mRNA expression in response to PTH", "setting": "RANKL mRNA; primary mouse osteoblast cells, in the presence of saline or FuGENE 6", "result": "upregulated in response to PTH"},
      {"measurement": "serum calcium", "setting": "[2]", "result": 20, "unit": "mg/dL"}
    ]}
  ]
}
